The MegaScale stability set (Tsuboyama et al. 2023)

B1: r16_88_TrROS_Hall (parent)
chain: EVIELKIKFKTPEQREKLKEIAKKLNAEVVEEKDGEVIIRFKTPEQAERALKEAEKLGAEVEL

Variants of: B1
Assay: folding stability dG (cDNA display proteolysis); higher = more stable
Details: PBS, room temperature
For EVIELKIKFKTPEQREKLKEIAKKNNAEVVEEKDGEVIIRFKTPEQAERALKEAEKLGAEVEL [L25N], the “folding stability dG” value was 4.13 kcal/mol. With EVIELKIKFKTPEQREKLKEIAKKWNAEVVEEKDGEVIIRFKTPEQAERALKEAEKLGAEVEL [L25W] the “folding stability dG” value was 4.85 kcal/mol. For EVIELKIKFKTPEQREKLKEIAKKDNAEVVEEKDGEVIIRFKTPEQAERALKEAEKLGAEVEL [L25D], the “folding stability dG” value was 4.31 kcal/mol. With EVIELKIKFKTPEQREKLKEIAKKYNAEVVEEKDGEVIIRFKTPEQAERALKEAEKLGAEVEL [L25Y] the “folding stability dG” value was 4.91 kcal/mol. For EVIELKIKFKTPEQREKLKEIAKKHNAEVVEEKDGEVIIRFKTPEQAERALKEAEKLGAEVEL [L25H], the “folding stability dG” value was 4.62 kcal/mol. For EVIELKIKFKTPEQREKLKEIAKKKNAEVVEEKDGEVIIRFKTPEQAERALKEAEKLGAEVEL [L25K], the “folding stability dG” value was 3.82 kcal/mol. In the case of EVIELKIKFKTPEQREKLKEIAKKFNAEVVEEKDGEVIIRFKTPEQAERALKEAEKLGAEVEL [L25F], the “folding stability dG” value is reported as 4.63 kcal/mol. In the case of EVIELKIKFKTPEQREKLKEIAKKGNAEVVEEKDGEVIIRFKTPEQAERALKEAEKLGAEVEL [L25G], the “folding stability dG” value is reported as 4.23 kcal/mol. For EVIELKIKFKTPEQREKLKEIAKKVNAEVVEEKDGEVIIRFKTPEQAERALKEAEKLGAEVEL [L25V], the “folding stability dG” value was 4.32 kcal/mol. For EVIELKIKFKTPEQREKLKEIAKKQNAEVVEEKDGEVIIRFKTPEQAERALKEAEKLGAEVEL [L25Q], the “folding stability dG” value was 4.42 kcal/mol. For EVIELKIKFKTPEQREKLKEIAKKRNAEVVEEKDGEVIIRFKTPEQAERALKEAEKLGAEVEL [L25R], the “folding stability dG” value was 4.09 kcal/mol. For EVIELKIKFKTPEQREKLKEIAKKANAEVVEEKDGEVIIRFKTPEQAERALKEAEKLGAEVEL [L25A], the “folding stability dG” value was 4.05 kcal/mol. With EVIELKIKFKTPEQREKLKEIAKKPNAEVVEEKDGEVIIRFKTPEQAERALKEAEKLGAEVEL [L25P] the “folding stability dG” value was 3.67 kcal/mol. In the case of EVIELKIKFKTPEQREKLKEIAKKENAEVVEEKDGEVIIRFKTPEQAERALKEAEKLGAEVEL [L25E], the “folding stability dG” value is reported as 4.25 kcal/mol. In the case of EVIELKIKFKTPEQREKLKEIAKKCNAEVVEEKDGEVIIRFKTPEQAERALKEAEKLGAEVEL [L25C], the “folding stability dG” value is reported as 4.35 kcal/mol. For EVIELKIKFKTPEQREKLKEIAKKINAEVVEEKDGEVIIRFKTPEQAERALKEAEKLGAEVEL [L25I], the “folding stability dG” value was 4.46 kcal/mol. With EVIELKIKFKTPEQREKLKEIAKKSNAEVVEEKDGEVIIRFKTPEQAERALKEAEKLGAEVEL [L25S] the “folding stability dG” value was 4.33 kcal/mol. In the case of EVIELKIKFKTPEQREKLKEIAKKMNAEVVEEKDGEVIIRFKTPEQAERALKEAEKLGAEVEL [L25M], the “folding stability dG” value is reported as 4.28 kcal/mol. For EVIELKIKFKTPEQREKLKEIAKKTNAEVVEEKDGEVIIRFKTPEQAERALKEAEKLGAEVEL [L25T], the “folding stability dG” value was 4.29 kcal/mol. For EVIELKIKFKTPEQREKLKEIAKFLNAEVVEEKDGEVIIRFKTPEQAERALKEAEKLGAEVEL [K24F], the “folding stability dG” value was 4.67 kcal/mol. In the case of EVIELKIKFKTPEQREKLKEIAKHLNAEVVEEKDGEVIIRFKTPEQAERALKEAEKLGAEVEL [K24H], the “folding stability dG” value is reported as 4.3 kcal/mol. With EVIELKIKFKTPEQREKLKEIAKALNAEVVEEKDGEVIIRFKTPEQAERALKEAEKLGAEVEL [K24A] the “folding stability dG” value was 4.28 kcal/mol. With EVIELKIKFKTPEQREKLKEIAKELNAEVVEEKDGEVIIRFKTPEQAERALKEAEKLGAEVEL [K24E] the “folding stability dG” value was 4.43 kcal/mol. In the case of EVIELKIKFKTPEQREKLKEIAKILNAEVVEEKDGEVIIRFKTPEQAERALKEAEKLGAEVEL [K24I], the “folding stability dG” value is reported as 4.49 kcal/mol. For EVIELKIKFKTPEQREKLKEIAKQLNAEVVEEKDGEVIIRFKTPEQAERALKEAEKLGAEVEL [K24Q], the “folding stability dG” value was 4.56 kcal/mol. For EVIELKIKFKTPEQREKLKEIAKGLNAEVVEEKDGEVIIRFKTPEQAERALKEAEKLGAEVEL [K24G], the “folding stability dG” value was 4.47 kcal/mol. With EVIELKIKFKTPEQREKLKEIAKVLNAEVVEEKDGEVIIRFKTPEQAERALKEAEKLGAEVEL [K24V] the “folding stability dG” value was 4.61 kcal/mol. For EVIELKIKFKTPEQREKLKEIAKYLNAEVVEEKDGEVIIRFKTPEQAERALKEAEKLGAEVEL [K24Y], the “folding stability dG” value was 4.84 kcal/mol. For EVIELKIKFKTPEQREKLKEIAKMLNAEVVEEKDGEVIIRFKTPEQAERALKEAEKLGAEVEL [K24M], the “folding stability dG” value was 4.4 kcal/mol. In the case of EVIELKIKFKTPEQREKLKEIAKLLNAEVVEEKDGEVIIRFKTPEQAERALKEAEKLGAEVEL [K24L], the “folding stability dG” value is reported as 4.5 kcal/mol. With EVIELKIKFKTPEQREKLKEIAKSLNAEVVEEKDGEVIIRFKTPEQAERALKEAEKLGAEVEL [K24S] the “folding stability dG” value was 4.47 kcal/mol. With EVIELKIKFKTPEQREKLKEIAKRLNAEVVEEKDGEVIIRFKTPEQAERALKEAEKLGAEVEL [K24R] the “folding stability dG” value was 4.38 kcal/mol. For EVIELKIKFKTPEQREKLKEIAKPLNAEVVEEKDGEVIIRFKTPEQAERALKEAEKLGAEVEL [K24P], the “folding stability dG” value was 3.96 kcal/mol. In the case of EVIELKIKFKTPEQREKLKEIAKWLNAEVVEEKDGEVIIRFKTPEQAERALKEAEKLGAEVEL [K24W], the “folding stability dG” value is reported as 4.77 kcal/mol. With EVIELKIKFKTPEQREKLKEIAKNLNAEVVEEKDGEVIIRFKTPEQAERALKEAEKLGAEVEL [K24N] the “folding stability dG” value was 4.46 kcal/mol. In the case of EVIELKIKFKTPEQREKLKEIAKCLNAEVVEEKDGEVIIRFKTPEQAERALKEAEKLGAEVEL [K24C], the “folding stability dG” value is reported as 4.53 kcal/mol. In the case of EVIELKIKFKTPEQREKLKEIAKTLNAEVVEEKDGEVIIRFKTPEQAERALKEAEKLGAEVEL [K24T], the “folding stability dG” value is reported as 4.48 kcal/mol. In the case of EVIELKIKFKTPEQREKLKEIAKDLNAEVVEEKDGEVIIRFKTPEQAERALKEAEKLGAEVEL [K24D], the “folding stability dG” value is reported as 4.39 kcal/mol. With EVIELKIKFKTPEQREKLKEIAKKLKAEVVEEKDGEVIIRFKTPEQAERALKEAEKLGAEVEL [N26K] the “folding stability dG” value was 4.44 kcal/mol. For EVIELKIKFKTPEQREKLKEIAKKLCAEVVEEKDGEVIIRFKTPEQAERALKEAEKLGAEVEL [N26C], the “folding stability dG” value was 4.33 kcal/mol. For EVIELKIKFKTPEQREKLKEIAKKLIAEVVEEKDGEVIIRFKTPEQAERALKEAEKLGAEVEL [N26I], the “folding stability dG” value was 4.19 kcal/mol. For EVIELKIKFKTPEQREKLKEIAKKLHAEVVEEKDGEVIIRFKTPEQAERALKEAEKLGAEVEL [N26H], the “folding stability dG” value was 4.24 kcal/mol.
